Measured values as given in PMC3576412.

Key:
Im9 (Escherichia coli) = Im9 (Escherichia coli) (UniProt P13479); conditions: cited from earlier work
[1] = target: DNase domain of colicin E9, E9 (S3C) (E. coli); test: dynamic force spectroscopy (AFM)

k0F off (outer barrier) [1] [s⁻¹]	Molecule	Kd (Im9 (Escherichia coli)) [pM]
	Colicin E9 DNase domain (from UniProt P09883)	0.016
7.6	Im2 (D33A), pulled from residue 81 (natural protein) MELKHSISDYTEAEFLEFVKKIARAEGATEEDANKLVREFERLTEHPDGSDLIYYPRDDREDSPEGIVKEIKEWRAANGKCGFKQG	
